The source of these data is patent US20240327530A1 (ICHNOS SCIENCES, published 2024).

The target of assay [1] is T1, Recombinant mouse IL-1RAP-his (Sino Biologicals, catalog no. 52657-M08H) (mouse, UniProt Q61730 21-350).
T1 construct: Bought; not shown: His tag of the bought protein
T1 sequence: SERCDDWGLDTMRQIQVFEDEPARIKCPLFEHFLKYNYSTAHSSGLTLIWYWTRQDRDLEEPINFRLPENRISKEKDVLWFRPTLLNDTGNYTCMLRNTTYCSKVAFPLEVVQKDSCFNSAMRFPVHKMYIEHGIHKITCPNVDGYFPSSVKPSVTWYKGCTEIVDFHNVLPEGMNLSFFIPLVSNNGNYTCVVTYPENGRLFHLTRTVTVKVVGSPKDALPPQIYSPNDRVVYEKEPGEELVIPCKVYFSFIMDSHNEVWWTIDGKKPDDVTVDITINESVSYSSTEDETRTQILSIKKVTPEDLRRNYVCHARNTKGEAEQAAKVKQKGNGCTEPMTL
In words: SPR, mouse IgG2a LALA captured by anti-mouse Fc, mouse IL-1RAP-his as analyte, 1:1 fit. On the procedure:
Surface plasmon resonance (SPR) was used to measure the binding affinities of mouse IgG2a LALA molecules for mouse IL-1RAP. Affinity was measured on a BIACORE™ T200 instrument (BIACORE™ GE […]®) at 25° C. and analyzed with the BIACORE™ T200 Evaluation Software (v3.1). Measurements were performed on Series S CM5 sensor chips (BIACORE™ T200, BIACORE™, GE […]®, catalog no. BR100530) coupled with anti-mouse IgG Fc (BIACORE™, GE […]®, catalog no. BR100838) using a commercial amine coupling kit (BIACORE™, GE […]®, catalog no. BR100050). SPR measurements were performed with commercially available recombinant mouse IL-1RAP-his (Sino Biologicals, catalog no. 52657-M08H). The affinity to mouse IL-1RAP was assessed by immobilizing anti-mouse IL-1RAP mouse IgG2a LALA molecule and using mouse IL-1RAP protein as analyte. Around 150 RU of mouse IgG2a LALA was captured on fc2 of a Series S CM5 sensor chip coupled with anti-mouse IgG Fc. Mouse IL-1RAP-his was injected in multi cycle kinetic at different concentrations ranging from 0.14 to 100 nM, in HBS-EP+ buffer (BIACORE™, GE […]®, catalog no. BR100669) at a flow rate of 30 μl/min for 3 min on fc1 and fc2 (fc1 being used as reference). Dissociation was monitored for 15 min. After each cycle, the surface was regenerated with 60 μl of regeneration solution provided with anti-mouse IgG Fc capture kit (BIACORE™ GE […]®, catalog no. BR100838). Experimental data were processed using the 1:1 Langmuir kinetic fitting model. Measurements included zero-concentration samples for referencing. Chi², U- and residual values were used to evaluate the quality of a fit between the experimental data and individual binding models.

Assay [2] deals with T2, Recombinant cynomolgus monkey IL-1RAP-ECD(S21-E359)-avi-his protein (cynomolgus monkey, UniProt P59822 21-359 (rhesus entry)).
T2 construct: also called cyno IL-1RAP-ECD-Avi-His; recombinant cynomolgus monkey IL-1RAP-avi-his protein
T2 sequence: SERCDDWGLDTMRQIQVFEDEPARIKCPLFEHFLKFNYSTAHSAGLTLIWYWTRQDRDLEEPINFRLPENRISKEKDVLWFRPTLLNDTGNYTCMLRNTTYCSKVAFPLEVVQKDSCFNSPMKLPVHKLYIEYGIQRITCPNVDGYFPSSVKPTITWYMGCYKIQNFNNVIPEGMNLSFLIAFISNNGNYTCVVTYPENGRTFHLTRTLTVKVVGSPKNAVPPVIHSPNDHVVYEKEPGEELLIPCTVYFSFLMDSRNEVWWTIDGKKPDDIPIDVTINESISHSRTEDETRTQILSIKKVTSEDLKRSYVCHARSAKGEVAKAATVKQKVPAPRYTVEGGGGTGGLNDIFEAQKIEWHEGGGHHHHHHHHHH
Nature of the assay: SPR, IgG1 LALA captured by anti-human Fc, cyno IL-1RAP-avi-his as analyte, 1:1 fit. On the procedure:
Surface plasmon resonance (SPR) was used to measure the binding affinities of the human IgG1 LALA molecules for human and cynomolgus monkey IL-1RAP. Affinities were measured on a BIACORE™ T200 instrument (BIACORE™, GE […]®) at 25° C. and analyzed with the BIACORE™ T200 Evaluation Software (v3.1). Measurements were performed on Series S CM5 sensor chips (BIACORE™ T200, BIACORE™, GE […]®, catalog no. BR100530) coupled with anti-human IgG Fc (BIACORE™, GE […]®, catalog no. BR100839) using a commercial amine coupling kit (BIACORE™, GE […]®, catalog no. BR100050). SPR measurements were performed with recombinant human IL-1RAP-avi-his protein produced in house (SEQ ID NO. 1) or recombinant cynomolgus monkey IL-1RAP-avi-his protein produced in house (SEQ ID NO. 2). The affinities to human and cynomolgus monkey IL-1RAP were assessed by immobilizing anti-IL-1RAP IgG1 LALA molecules and using IL-1RAP proteins as analyte. Around 150 RU of human IgG1 LALA were captured on fc2 of a Series S CM5 sensor chip coupled with anti-human IgG Fc. Recombinant human IL-1RAP-avi-his protein or recombinant cynomolgus monkey IL-1RAP-avi-his protein was injected in multi cycle kinetic at different concentrations ranging from 0.14 to 100 nM, in HBS-EP+ buffer (BIACORE™, GE […]®, catalog no. BR100669) at a flow rate of 30 μl/min for 3 min on fc1 and fc2 (fc1 being used as reference). Dissociation was monitored for 12 min. After each cycle, the surface was regenerated with 60 μl of regeneration solution provided with anti-human IgG Fc capture kit (BIACORE™, GE […]®, catalog no. BR100839). Experimental data were processed using the 1:1 Langmuir kinetic fitting model. Measurements included zero-concentration samples for referencing. Chi², U- and residual values were used to evaluate the quality of a fit between the experimental data and individual binding models.
On the technique in general: SPR reads the build-up and loss of mass on a sensor chip optically.

B1: Anti-IL-1RAP-C3-A3 mmIgG2a LALA (antibody, V domains shown)
VH: EVQLLESGGGLVQPGGSLRLSCAASGFIFSHYGMSWVRQAPGKGLEWVSAISYDGEGTLYADSVKGRFTISRDNSKNTLYLQMNSLRAEDTAVYYCARFRYYTAFDYWGQGTLVTVSS
VL: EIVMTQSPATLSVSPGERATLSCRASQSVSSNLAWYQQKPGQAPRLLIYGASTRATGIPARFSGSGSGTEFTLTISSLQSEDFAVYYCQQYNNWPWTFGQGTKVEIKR
notes: also called anti-IL-1RAP-C3-A3 mouse IgG2a LALA
Turning to B1, in assay [1], the Kd is 0.545 nM, the koff turned out to be 7.46e-05 s⁻¹ and the kon was determined as 138000 M⁻¹ s⁻¹.

B2: Anti-IL-1RAP-C8-RecC-ES-IgG1LALA (antibody, V domains shown)
VH: QVQLVQSGAEVKKPGSSVKVSCKASGSPAEPYAIQWVRQAPGQGLEWMGYIIPSLGGYDYAQKFQGRVTITADESTSTAYMELSSLRSEDTAVYYCARGQTLYESGRQFDIWGQGTLVTVSS
VL: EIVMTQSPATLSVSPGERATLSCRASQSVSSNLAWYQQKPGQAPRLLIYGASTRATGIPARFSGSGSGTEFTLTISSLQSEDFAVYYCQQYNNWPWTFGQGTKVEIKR
notes: also called ISB 880-C8-recC-ES
For the molecule B2, in assay [2], the dissociation constant Kd was 0.306 nM, the koff amounted to 0.000212 s⁻¹ and the on-rate (kon) turned out to be 692000 M⁻¹ s⁻¹.

For orientation: Kd means the equilibrium constant for the complex coming apart. As usually defined, the koff is the first-order rate constant of dissociation. The kon is a measure of how fast the partners come together.
